Data published in PMC3679108, “A Novel Glucagon-Related Peptide (GCRP) and Its Receptor GCRPR Account for Coevolution of Their Family Members in Vertebrates” (PLoS ONE, 2013).

Assays:
[1] = molecular target: human GIPR (human) (UniProt P48546)
[2] = molecular target: Xenopus GCRP receptor (Xenopus)
[3] = molecular target: chicken GCRP receptor (chicken)

Chain of Human GCG (peptide) (peptide): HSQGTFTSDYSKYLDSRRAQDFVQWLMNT
Chain of Human GLP1 (peptide) (peptide): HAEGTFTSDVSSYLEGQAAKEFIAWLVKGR
Chain of human GIPR (human) (P48546 22-466): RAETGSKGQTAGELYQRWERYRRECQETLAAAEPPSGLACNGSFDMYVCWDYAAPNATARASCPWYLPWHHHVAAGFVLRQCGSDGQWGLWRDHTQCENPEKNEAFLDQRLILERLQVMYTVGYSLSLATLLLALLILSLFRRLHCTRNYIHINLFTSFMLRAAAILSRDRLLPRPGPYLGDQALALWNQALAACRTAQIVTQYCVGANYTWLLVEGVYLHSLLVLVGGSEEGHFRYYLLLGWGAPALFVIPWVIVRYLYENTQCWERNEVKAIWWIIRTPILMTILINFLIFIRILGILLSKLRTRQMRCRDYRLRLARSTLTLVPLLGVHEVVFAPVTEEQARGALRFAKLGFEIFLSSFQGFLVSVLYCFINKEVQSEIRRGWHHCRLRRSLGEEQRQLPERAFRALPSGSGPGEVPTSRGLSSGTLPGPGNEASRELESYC

## Exendin-4 (peptide)
[1]
  CRE-luc reporter, HEK293T cells with the receptor: EC50: 100 nM

## Human GCG (peptide)
[2]
  CRE-luc reporter, HEK293T cells with the receptor: EC50: 49.4 nM
  CRE-luc reporter, HEK293T cells with the receptor: Emax (fold induction): 32.7
[3]
  CRE-luc reporter, HEK293T cells with the receptor: EC50: 35.3 nM
  CRE-luc reporter, HEK293T cells with the receptor: Emax (fold induction): 6.3

## Human GLP1 (peptide)
[2]
  CRE-luc reporter, HEK293T cells with the receptor: EC50: 391 nM
  CRE-luc reporter, HEK293T cells with the receptor: Emax (fold induction): 35
[3]
  CRE-luc reporter, HEK293T cells with the receptor: EC50: 120 nM
  CRE-luc reporter, HEK293T cells with the receptor: Emax (fold induction): 6.24
